Read-outs that look alike come from different tables or passages of the source.
Columns and labels:
Assay in all cases: SEC-MALS
[1] = target: human LETM1 F-EF-hand domain, residues 643-699, D676K/N678K (human) (UniProt O95202)
[2] = target: human LETM1 F-EF-hand domain, residues 643-699, D676K/N678K (human) (UniProt O95202); remark: listed apart in the source
SEC-MALS [3] = target: the molecule itself
SEC-MALS [4] = target: the molecule itself; remark: listed apart in the source

Molecule	stoichiometry N (SEC-MALS [3])	stoichiometry N (SEC-MALS [4])	other results
human LETM1 F-EF-hand domain, residues 643-699, D676K/N678K (from UniProt O95202-1 643-699) (domain or fragment)	–	–	stoichiometry N [1]: 2; stoichiometry N [2]: 2
human LETM1 F-EF-hand domain, residues 643-699, wild type (domain or fragment, UniProt O95202-1 643-699, looked up) TGENVISVAELINAMKQVKHIPESKLTSLAAALDENKDGKVNIDDLVKVIELVDKED	~2	–	–
human LETM1 F-EF-hand domain, residues 643-699, D686A/D687A (domain or fragment, UniProt O95202-1 643-699, looked up) TGENVISVAELINAMKQVKHIPESKLTSLAAALDENKDGKVNIAALVKVIELVDKED	–	2	–
human LETM1 F-EF-hand domain, residues 643-699, D687E (domain or fragment, UniProt O95202-1 643-699, looked up) TGENVISVAELINAMKQVKHIPESKLTSLAAALDENKDGKVNIDELVKVIELVDKED	2	–	–
human LETM1 F-EF-hand domain, residues 643-699, D676A/N678A (domain or fragment, UniProt O95202-1 643-699, looked up) TGENVISVAELINAMKQVKHIPESKLTSLAAALAEAKDGKVNIDDLVKVIELVDKED	–	2	–

Reference: doi:10.1101/2024.04.23.590744 (bioRxiv, 2024)
